The data set can be described thus: self-splicing fitness, log relative to wild type (ln ratio); higher = more splicing; Tetrahymena group I intron in knt gene, E. coli kanamycin selection, DiMSum; sequences stand for … in CUCUCU…GGAGGGAAAAGUUAUCAGGCAUGCACCUGGUAGCUAGUCUUUAAACCAAUAGAUUGCAUCGGUUUAAAAGGCAAGACCGUCAAAUUGCGGGAAAGGGGUCAACAGCCGUUCAGUACCAAGUCUCAGGGGAAACUUUGAGAUGGCCUUGCAAAGGGUAUGGUAAUAAGCUGACGGACAUGGUCCUAACCACGCAGCCAAGUCCUAAGUCAACAGAUCUUCUGUUGAUAUGGAUGCAGUUCACAGACUAAAUGUCGGUCGGGGAAGAUGUAUUCUUCUCAUAAGAUAUAGUCGGACCUCUCCUUAAUGGGAGCUAGCGGAUGAAGUGAUGCAACACUGGAGCCGCUGGGAACUAAUUUGUAUGCGAAAGUAUAUUGAUUAGUUUUGGAGUACUCGUGGUCG
The procedure, abridged:
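Library with all eight P1ex-region intron nucleotides randomised, intron inside the knt kanamycin-resistance gene on pET-22b(+), in E. coli BL21(DE3). Cells grew overnight at 37°C or 30°C on LB agar with or without 25 μg/mL kanamycin (plus 100 μg/mL carbenicillin, 50 μM IPTG, 0.2% rhamnose), in six replicate transformations. Pooled colonies were amplicon-sequenced on Illumina HiSeq 2500. DiMSum fitness is the error-weighted combination of wild-type-normalised replicate fold changes, kanamycin versus none.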

± gives the uncertainty stated by the source.

Turning to UCUGAGCAAUAUUACGUUCA, the “self-splicing fitness (ln)” value was -2.84 ± 0.18 (30 °C) and -2.87 ± 0.28 (37 °C).

Regarding UCUUAGCAAUAUUACGAAGC, the “self-splicing fitness (ln)” value was -2.94 ± 0.21 (30 °C) and -2.05 ± 0.17 (37 °C).

On to UCUUAGCAAUAUUACGAGCA, for which the “self-splicing fitness (ln)” value reads like this: (30 °C) -0.901 ± 0.15; (37 °C) -0.00766 ± 0.15.

With UCUUAGCAAUAUUACGAGGU, the “self-splicing fitness (ln)” value by setting is: (30 °C) -3.29 ± 0.29; (37 °C) -1.82 ± 0.2.

UCUUAGCAAUAUUACGAGUC: the “self-splicing fitness (ln)” value (37 °C) is -2.22 ± 0.36.

On to UCUUAGCAAUAUUACGCAAA, for which the “self-splicing fitness (ln)” value reads like this: (30 °C) -1.56 ± 0.32; (37 °C) -2.31 ± 0.29.

Turning to UCUUAGCAAUAUUACGCAAU, the “self-splicing fitness (ln)” value (37 °C) is -2.53 ± 0.36.

As for UCUUAGCAAUAUUACGCCGU, the “self-splicing fitness (ln)” value (30 °C) was -2.05 ± 0.16 and the “self-splicing fitness (ln)” value (37 °C) is -0.32 ± 0.17.

As for UCUUAGCAAUAUUACGCCUA, where the note is “37 °C”, the “self-splicing fitness (ln)” value is -2.71 ± 0.41.

In the case of UCUUAGCAAUAUUACGCGUA, the “self-splicing fitness (ln)” value by setting is: (30 °C) -3.4 ± 0.24; (37 °C) -1.38 ± 0.15.

Take UCUUAGCAAUAUUACGCUCU: the “self-splicing fitness (ln)” value by setting is: (30 °C) -1.99 ± 0.24; (37 °C) -1.61 ± 0.29.

Regarding UCUUAGCAAUAUUACGGAAC, the “self-splicing fitness (ln)” value is -0.987 ± 0.34 (30 °C) and -1.99 ± 0.43 (37 °C).

For the sequence UCUUAGCAAUAUUACGGAGG, the “self-splicing fitness (ln)” value reads like this: (30 °C) -2.67 ± 0.34; (37 °C) -2.17 ± 0.31.

Regarding UCUUAGCAAUAUUACGGCAA, the “self-splicing fitness (ln)” value (37 °C) is -1.57 ± 0.37.

UCUUAGCAAUAUUACGGGAG: the “self-splicing fitness (ln)” value (30 °C) was -2.63 ± 0.49 and the “self-splicing fitness (ln)” value (37 °C) was -2.41 ± 0.35.

With UCUUAGCAAUAUUACGGUAA, the “self-splicing fitness (ln)” value was -2.62 ± 0.23 (30 °C) and -1.7 ± 0.32 (37 °C).

UCUUAGCAAUAUUACGGUAC: the “self-splicing fitness (ln)” value (30 °C) was -3.68 ± 0.41 and the “self-splicing fitness (ln)” value (37 °C) is -2.51 ± 0.48.

Regarding UCUUAGCAAUAUUACGGUCG, the “self-splicing fitness (ln)” value is, setting by setting: (30 °C) -0.895 ± 0.16; (37 °C) -1.37 ± 0.33.

Regarding UCUUAGCAAUAUUACGGUGU, the “self-splicing fitness (ln)” value (30 °C) was -2.83 ± 0.12 and the “self-splicing fitness (ln)” value (37 °C) was -1.23 ± 0.12.

With UCUUAGCAAUAUUACGGUUU, the “self-splicing fitness (ln)” value runs as follows: (30 °C) -3.61 ± 0.22; (37 °C) -1.77 ± 0.2.

For UCUUAGCAAUAUUACGUAGA, the “self-splicing fitness (ln)” value by setting is: (30 °C) -1.15 ± 0.21; (37 °C) -0.474 ± 0.18.

As to UCUUAGCAAUAUUACGUGCU, the “self-splicing fitness (ln)” value is, setting by setting: (30 °C) -3.12 ± 0.38; (37 °C) -2.37 ± 0.48.

Turning to UCUUAGCAAUAUUACGUGUU, the “self-splicing fitness (ln)” value by setting is: (30 °C) -2.67 ± 0.15; (37 °C) -2.3 ± 0.25.

For the sequence UCUUAGCAAUAUUACGUUCA, the “self-splicing fitness (ln)” value is -2.92 ± 0.14 (30 °C) and -1.85 ± 0.11 (37 °C).

On to UCUUAGCAAUAUUACGUUGC, for which the “self-splicing fitness (ln)” value (30 °C) was -3.46 ± 0.47.

As to UGAAAGCAAUAUUACGAACC, the “self-splicing fitness (ln)” value is -1.55 ± 0.17 (30 °C) and -1.16 ± 0.22 (37 °C).

Take UGAAAGCAAUAUUACGACUA: the “self-splicing fitness (ln)” value is -0.403 ± 0.08 (30 °C) and 0.139 ± 0.11 (37 °C).

UGAAAGCAAUAUUACGAGCG: the “self-splicing fitness (ln)” value is, setting by setting: (30 °C) 0.46 ± 0.072; (37 °C) -0.171 ± 0.085.

Regarding UGAAAGCAAUAUUACGAGGG, the “self-splicing fitness (ln)” value is, setting by setting: (30 °C) -2.91 ± 0.17; (37 °C) -3.6 ± 0.42.

For the sequence UGAAAGCAAUAUUACGAUUG, the “self-splicing fitness (ln)” value (30 °C) is -0.872 ± 0.11 and the “self-splicing fitness (ln)” value (37 °C) is -0.573 ± 0.14.

In the case of UGAAAGCAAUAUUACGCGCC, the “self-splicing fitness (ln)” value runs as follows: (30 °C) -0.832 ± 0.21; (37 °C) -0.728 ± 0.23.

As for UGAAAGCAAUAUUACGCUUA, the “self-splicing fitness (ln)” value is -1.26 ± 0.17 (30 °C) and -0.254 ± 0.17 (37 °C).

Take UGAAAGCAAUAUUACGGAAA: the “self-splicing fitness (ln)” value was -1.83 ± 0.18 (30 °C) and -1.29 ± 0.17 (37 °C).

Turning to UGAAAGCAAUAUUACGGAGA, the “self-splicing fitness (ln)” value (30 °C) was -3.09 ± 0.2 and the “self-splicing fitness (ln)” value (37 °C) is -2.54 ± 0.23.

Take UGAAAGCAAUAUUACGGAUU: the “self-splicing fitness (ln)” value is -1.99 ± 0.17 (30 °C) and -1.09 ± 0.18 (37 °C).

As to UGAAAGCAAUAUUACGGCAG, the “self-splicing fitness (ln)” value is -0.742 ± 0.094 (30 °C) and -0.105 ± 0.11 (37 °C).

In the case of UGAAAGCAAUAUUACGGGAA, the “self-splicing fitness (ln)” value was -2.6 ± 0.14 (30 °C) and -1.62 ± 0.12 (37 °C).

As to UGAAAGCAAUAUUACGGGUG, the “self-splicing fitness (ln)” value reads like this: (30 °C) -0.621 ± 0.051; (37 °C) -0.399 ± 0.069.

With UGAAAGCAAUAUUACGGUCU, the “self-splicing fitness (ln)” value was -0.0503 ± 0.077 (30 °C) and -0.209 ± 0.085 (37 °C).

The values above are taken from the supplement of paper PMC7877785.
